Experimental findings from patent US20230303698A1 (HARBOUR BIOMED SHANGHAI, published 2023) are described below.

One assay deals with T1, human PSMA (human, UniProt Q04609 1-750).
T1 construct: whole, on cells; On LNCaP cells highly expressing human PSMA (Nanjing Cobioer, CBP60364); also called FOLH1; glutamate carboxypeptidase 2
Kind of assay: flow cytometry, LNCaP cells highly expressing human PSMA.

In the next assay the target is T2, human PD-L1 (human, UniProt Q9NZQ7 19-290).
T2 construct: whole, on cells; Expressed on CHO-K1/hPD-L1 cells (GenScript, M00543); also called CD274; B7-H1
T2 sequence (Q9NZQ7 19-290): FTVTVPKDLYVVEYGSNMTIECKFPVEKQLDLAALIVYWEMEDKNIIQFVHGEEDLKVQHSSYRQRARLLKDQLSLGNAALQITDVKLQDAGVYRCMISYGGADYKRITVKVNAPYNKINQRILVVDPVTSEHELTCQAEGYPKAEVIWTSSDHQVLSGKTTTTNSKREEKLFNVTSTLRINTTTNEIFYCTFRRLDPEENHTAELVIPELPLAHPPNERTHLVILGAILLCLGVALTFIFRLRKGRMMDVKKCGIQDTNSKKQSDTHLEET
Kind of assay: flow cytometry, CHO-K1/hPD-L1 cells. On the technique in general: In flow cytometry, cells or beads pass a laser one at a time.

Another assay concerns the target T3, human 4-1BB (human, UniProt Q07011 24-255).
T3 construct: whole, on cells; Expressed on CHO-K1/hu 4-1BB cells (GenScript, M00538); also called CD137; TNFRSF9
Kind of assay: flow cytometry, CHO-K1/hu 4-1BB cells.

The target of the next assay is T4, human OX40 (human, UniProt P43489 29-277).
T4 construct: whole, on cells; Expressed on CHO-K1/hu OX40 cells (GenScript, #M00561); also called CD134; TNFRSF4
T4 sequence (looked up): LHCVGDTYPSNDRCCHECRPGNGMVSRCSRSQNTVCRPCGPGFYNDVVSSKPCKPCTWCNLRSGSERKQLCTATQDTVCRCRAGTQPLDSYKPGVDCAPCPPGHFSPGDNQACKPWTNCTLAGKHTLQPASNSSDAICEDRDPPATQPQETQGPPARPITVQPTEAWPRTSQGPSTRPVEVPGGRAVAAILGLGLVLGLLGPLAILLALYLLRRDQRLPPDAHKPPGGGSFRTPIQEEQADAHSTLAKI
Briefly: flow cytometry, CHO-K1/hu OX40 cells.

Another assay has as its target T5, human CLDN18.2 (human).
T5 construct: On NUGC-4 cells highly expressing human CLDN18.2 (JCRB, JCRB0834); also called Claudin 18.2; NUGC-4 cells
Kind of assay: flow cytometry, NUGC-4 cells highly expressing human CLDN18.2.

T3 sequence (Q07011 24-255): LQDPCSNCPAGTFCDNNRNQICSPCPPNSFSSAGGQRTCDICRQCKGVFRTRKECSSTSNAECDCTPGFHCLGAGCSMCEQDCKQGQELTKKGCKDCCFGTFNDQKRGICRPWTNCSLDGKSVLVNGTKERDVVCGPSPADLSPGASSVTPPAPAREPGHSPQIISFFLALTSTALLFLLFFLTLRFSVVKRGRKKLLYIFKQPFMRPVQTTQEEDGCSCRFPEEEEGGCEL
T1 sequence (Q04609 whole entry): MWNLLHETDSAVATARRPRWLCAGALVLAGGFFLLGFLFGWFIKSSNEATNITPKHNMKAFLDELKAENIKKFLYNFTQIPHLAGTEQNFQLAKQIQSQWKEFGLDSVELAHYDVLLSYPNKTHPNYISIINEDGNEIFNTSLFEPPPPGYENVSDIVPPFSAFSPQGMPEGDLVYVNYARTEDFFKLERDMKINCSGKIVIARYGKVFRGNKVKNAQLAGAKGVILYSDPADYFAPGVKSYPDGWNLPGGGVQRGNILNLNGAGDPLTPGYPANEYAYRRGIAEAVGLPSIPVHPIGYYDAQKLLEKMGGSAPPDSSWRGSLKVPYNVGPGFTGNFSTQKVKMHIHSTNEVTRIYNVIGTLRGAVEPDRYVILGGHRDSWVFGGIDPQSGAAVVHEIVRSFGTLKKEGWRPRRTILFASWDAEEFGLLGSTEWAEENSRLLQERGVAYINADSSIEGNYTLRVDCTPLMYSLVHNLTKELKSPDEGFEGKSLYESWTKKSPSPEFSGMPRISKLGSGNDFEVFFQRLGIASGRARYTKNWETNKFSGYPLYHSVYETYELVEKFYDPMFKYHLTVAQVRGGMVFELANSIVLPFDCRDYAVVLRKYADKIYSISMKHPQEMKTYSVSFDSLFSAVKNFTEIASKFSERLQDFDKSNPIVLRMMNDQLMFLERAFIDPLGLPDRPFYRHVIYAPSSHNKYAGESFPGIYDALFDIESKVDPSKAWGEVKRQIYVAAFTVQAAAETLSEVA
Protocol for human 4-1BB: The binding ability of the binding protein to a CHO-K1 cell line CHO-K1/hu 4-1BB (GenScript, M00538) highly expressing human 4-1BB and a CHO-K1 cell line CHO-K1/cyno 4-1BB (GenScript, M00569) highly expressing cynomolgus monkey 4-1BB were determined by flow cytometry FACS. Specifically, the cells were digested and resuspended in a complete medium, and the cell density was adjusted to 2×10⁶ cells/mL. […] The cells were incubated at 4° C. for 1 h away from light. Then, the cells in each well were rinsed twice with 100 μL of pre-cooled FACS buffer (PBS buffer containing 0.5% BSA) and centrifuged at 500 g at 4° C. for 5 min, and then the supernatant was discarded. […] Then, the cells in each well were then rinsed twice with 200 μL of pre-cooled FACS buffer and centrifuged at 500 g at 4° C. for 5 min, and then the supernatant was discarded. Finally, a pre-cooled FACS buffer was added at 200 μL/well to resuspend the cells. Fluorescence signal values were read using a BD FACS CANTOII flow cytometer or an ACEA NovoCyte flow cytometer, and the data were processed and analyzed using FlowJo v10 (FlowJo, LLC) software.
Protocol for human CLDN18.2: In this example, the binding ability of the binding proteins to cells highly expressing specific tumor antigens was determined by flow cytometry FACS. Briefly, a cell suspension was collected, and the cell density was adjusted to 2×10⁶ cells/mL. […] Then, binding proteins diluted in a 3-fold gradient at a total of 8 concentrations that were 2 times the final concentrations were added at 50 μL/well, and the mixture was mixed well. hIgG1 iso (CrownBio, #C0001) was used as an isotype control. The cells were incubated at 4° C. for 2 h away from light. Then, the cells in each well were then rinsed twice with 100 μL of pre-cooled PBS buffer and centrifuged at 500 g at 4° C. for 5 min, and then the supernatant was discarded. […] Then, the cells in each well were then rinsed twice with 100 μL of pre-cooled PBS buffer and centrifuged at 500 g at 4° C. for 5 min, and then the supernatant was discarded. Finally, a pre-cooled FACS buffer (PBS buffer containing 0.5% BSA) was added at 200 μL/well to resuspend the cells. Fluorescence signal values were read using an ACEA NovoCyte flow cytometer or a BD FACS CANTOII flow cytometer, and the data were processed and analyzed using FlowJo v10 (FlowJo, LLC) software.
In this example, the binding ability of the antibodies targeting CLDN18.2 to NUGC-4 cells highly expressing human CLDN18.2 (JCRB, JCRB0834) was determined.
Protocol for human OX40: The antibody binding assay at the cellular level was performed using a CHO-K1 cell line CHO-K1/hu OX40 (GenScript, #M00561) highly expressing human OX40. Briefly, the CHO-K1/hu OX40 cells were digested and resuspended in an F12K complete medium, and the cell density was adjusted to 1×10⁶ cells/mL. […] The cells were incubated at 4° C. for 1 h away from light. Thereafter, the cells in each well were rinsed twice with 100 μL of pre-cooled PBS, and centrifuged at 500 g at 4° C. for 5 min, and then the supernatant was discarded. […] The plate was incubated away from light at 4° C. for 30 min. The cells in each well were rinsed twice with 100 L of pre-cooled PBS, and centrifuged at 500 g at 4° C. for 5 min, and then the supernatant was discarded. Finally, a pre-cooled PBS was added at 200 μL/well to resuspend the cells. Fluorescence signal values were read using a BD FACS CANTOII flow cytometer or an ACEA NovoCyte flow cytometer, and the data were processed and analyzed using FlowJo v10 (FlowJo, LLC) software.

B1: PR001331, anti-PSMA monoclonal antibody 2E8A1B1 hIgG1 (antibody, V domains shown)
VH: QVQLVESGGGVVQPGRSLRLSCSASGFTFINYGMNWVRQAPGKGLEWVAVIWYDGSNKYYADSVRGRFTISRDNSKNTLYLQMNSLRAEDTAVYYCARGPGYGGHSDAFDIWGQGTMVTVSS
VL: DIQMTQSPSSLSASIGDRVTITCRASQSINSYLNWYQQKPGKAPKLLIYTASSLLSGVPSRFSASGSWTDFSLTISSLQPEDFATYYCQQSFSTPYTFGQGTNLEIKR
notes: Parent monoclonal antibody of the PSMA end; hIgG1
Regarding B1, the binding result with human PSMA was “binds”.

B2: PR003549 (bispecific antibody, human IgG1, kappa, L234A L235A)
light: DIQMTQSPSTLSASVGDRVTVTCRASQSIYIWLAWYQQKPGKAPNLLIYKASSLETGVPSRFSGSGSGTEFTLTISSLQPDDFATYYCQQYYGSSRTFGQGTKVEIKRTVAAPSVFIFPPSDEQLKSGTASVVCLLNNFYPREAKVQWKVDNALQSGNSQESVTEQDSKDSTYSLSSTLTLSKADYEKHKVYACEVTHQGLSSPVTKSFNRGEC
heavy: EVQLVESGGGLVQPGGSLRLSCAASGFTFSSYWMSWVRQAPGKGLEWVANIKQEGSEKYYVDSVKGRFTISRDNAKNSLYLQMNSLRAEDTAVYYCARDRAVAGAFDIWGQGTMVTVSSASTKGPSVFPLAPSSKSTSGGTAALGCLVKDYFPEPVTVSWNSGALTSGVHTFPAVLQSSGLYSLSSVVTVPSSSLGTQTYICNVNHKPSNTKVDKKVEPKSCDKTHTCPPCPAPEAAGGPSVFLFPPKPKDTLMISRTPEVTCVVVDVSHEDPEVKFNWYVDGVEVHNAKTKPREEQYNSTYRVVSVLTVLHQDWLNGKEYKCKVSNKALGAPIEKTISKAKGQPREPQVYTLPPSREEMTKNQVSLTCLVKGFYPSDIAVEWESNGQPENNYKTTPPVLDSDGSFFLYSKLTVDKSRWQQGNVFSCSVMHEALHNHYTQKSLSLSPGEPKSSDKTHTPPPPPRTEVQLLESGGGLVQLGGSLRLSCAASGFTFSRYAMTWVRQAPEKGLEWVSSISGSGDDTYYGDSVKGRFTISRDNSQNTVYLQMNSLRAEDTAVYFCAKEKAGTTGDYYYNVDVWGQGTTVTVSS
notes: Structure 1, IgG-VH tetravalent symmetric; PD-L1 Fab from PR000265, 4-1BB VH from PR001758; linker H1_15-RT; human IgG1 (AAG); also called PD-L1×4-1BB bispecific antibody molecule
For B2, the binding result with human PD-L1 and in the assay with human 4-1BB was “binds” each time.

B3: PR003789 (bispecific antibody, human IgG1, kappa, L234A L235A)
light: B2 light
heavy: EVQLVESGGGLVQPGGSLRLSCAASGFTFSSYWMSWVRQAPGKGLEWVANIKQEGSEKYYVDSVKGRFTISRDNAKNSLYLQMNSLRAEDTAVYYCARDRAVAGAFDIWGQGTMVTVSSASTKGPSVFPLAPSSKSTSGGTAALGCLVKDYFPEPVTVSWNSGALTSGVHTFPAVLQSSGLYSLSSVVTVPSSSLGTQTYICNVNHKPSNTKVDKKVEPKSCDKTHTCPPCPAPEAAGGPSVFLFPPKPKDTLMISRTPEVTCVVVDVSHEDPEVKFNWYVDGVEVHNAKTKPREEQYNSTYRVVSVLTVLHQDWLNGKEYKCKVSNKALGAPIEKTISKAKGQPREPQVYTLPPSREEMTKNQVSLTCLVKGFYPSDIAVEWESNGQPENNYKTTPPVLDSDGSFFLYSKLTVDKSRWQQGNVFSCSVMHEALHNHYTQKSLSLSPGAEPKSSDKTHTPPPPPEVQLLESGGGLVQPGGSLRLSCAASGFTFSSYAMSWVRQAPGKGLEWVSAISGRGGSTFYADSVRGRFTISRDNSKNTLYLQMNSLRAEDTAMYYCVDGTTGTTDVDYWGQGTLVTVSS
notes: Structure 1, IgG-VH; PD-L1 Fab from PR000265, OX40 VH from PR002067; linker H1_15; human IgG1 (AAG); also called PD-L1×OX40 bispecific antibody molecule
B3: the binding result with human PD-L1 and with human OX40 was “binds” throughout.

B4: PR003551 (bispecific antibody, human IgG1, kappa, L234A L235A)
light: B2 light
heavy: EVQLVESGGGLVQPGGSLRLSCAASGFTFSSYWMSWVRQAPGKGLEWVANIKQEGSEKYYVDSVKGRFTISRDNAKNSLYLQMNSLRAEDTAVYYCARDRAVAGAFDIWGQGTMVTVSSASTKGPSVFPLAPSSKSTSGGTAALGCLVKDYFPEPVTVSWNSGALTSGVHTFPAVLQSSGLYSLSSVVTVPSSSLGTQTYICNVNHKPSNTKVDKKVEPKSCDKTHTCPPCPAPEAAGGPSVFLFPPKPKDTLMISRTPEVTCVVVDVSHEDPEVKFNWYVDGVEVHNAKTKPREEQYNSTYRVVSVLTVLHQDWLNGKEYKCKVSNKALGAPIEKTISKAKGQPREPQVYTLPPSREEMTKNQVSLTCLVKGFYPSDIAVEWESNGQPENNYKTTPPVLDSDGSFFLYSKLTVDKSRWQQGNVFSCSVMHEALHNHYTQKSLSLSPGEPKSSDKTHTPPPPPRTEVQLLESGGGLVQPGGSLRLSCAASGFIFSNFAMTWVRQPPEKGLKWVSSINGSGFNTYYTDSVKGRFTISRDNSRNTLYLQMNRLTAEDTAVYFCAKEGSSETDDHYYNVDVWGQGTTVTVSS
notes: Structure 1, IgG-VH tetravalent symmetric; PD-L1 Fab from PR000265, 4-1BB VH from PR001836; linker H1_15-RT; human IgG (AAG) as printed; also called PD-L1×4-1BB bispecific antibody molecule
Regarding B4, the binding result in the assay with human PD-L1 and with human 4-1BB was “binds” in each case.

B5: PR002067, anti-OX40 heavy-chain antibody R1026P079E12 (antibody, human IgG1, V domains shown)
VH: EVQLLESGGGLVQPGGSLRLSCAASGFTFSSYAMSWVRQAPGKGLEWVSAISGRGGSTFYADSVRGRFTISRDNSKNTLYLQMNSLRAEDTAMYYCVDGTTGTTDVDYWGQGTLVTVSS
notes: Fully human heavy-chain antibody (HCAb), heavy chain dimer without light chains; also called anti-OX40 HCAb antibody
For B5, the binding result with human OX40 is reported as “binds”.

B6: PR003555 (bispecific antibody, human IgG1, kappa, L234A L235A)
light: DIQMTQSPSSLSASIGDRVTITCRASQSINSYLNWYQQKPGKAPKLLIYTASSLLSGVPSRFSASGSWTDFSLTISSLQPEDFATYYCQQSFSTPYTFGQGTNLEIKRTVAAPSVFIFPPSDEQLKSGTASVVCLLNNFYPREAKVQWKVDNALQSGNSQESVTEQDSKDSTYSLSSTLTLSKADYEKHKVYACEVTHQGLSSPVTKSFNRGEC
heavy: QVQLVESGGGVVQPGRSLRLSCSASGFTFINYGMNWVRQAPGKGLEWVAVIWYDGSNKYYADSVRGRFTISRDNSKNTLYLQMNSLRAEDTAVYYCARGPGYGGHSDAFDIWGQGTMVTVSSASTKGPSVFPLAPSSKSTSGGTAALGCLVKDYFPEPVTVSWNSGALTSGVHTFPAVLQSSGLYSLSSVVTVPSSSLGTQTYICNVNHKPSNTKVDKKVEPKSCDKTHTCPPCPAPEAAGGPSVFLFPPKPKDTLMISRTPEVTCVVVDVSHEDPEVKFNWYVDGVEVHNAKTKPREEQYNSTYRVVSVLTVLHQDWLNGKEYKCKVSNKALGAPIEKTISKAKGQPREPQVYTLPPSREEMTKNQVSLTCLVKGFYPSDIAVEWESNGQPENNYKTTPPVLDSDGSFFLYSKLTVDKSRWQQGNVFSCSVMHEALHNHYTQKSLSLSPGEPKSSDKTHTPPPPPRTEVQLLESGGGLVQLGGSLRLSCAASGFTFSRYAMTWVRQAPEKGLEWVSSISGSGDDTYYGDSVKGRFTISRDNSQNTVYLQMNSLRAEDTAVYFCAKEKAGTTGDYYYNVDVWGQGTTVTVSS
notes: Structure 1, IgG-VH; PSMA Fab from PR001331, 4-1BB VH from PR001758; linker H1_15-RT; human IgG1 (AAG); also called PSMA×4-1BB bispecific antibody molecule
As for B6, the binding result with human 4-1BB and with human PSMA was “binds” throughout.

B7: PR004284 (bispecific antibody, human IgG1, kappa, L234A L235A)
light: B6 light
heavy: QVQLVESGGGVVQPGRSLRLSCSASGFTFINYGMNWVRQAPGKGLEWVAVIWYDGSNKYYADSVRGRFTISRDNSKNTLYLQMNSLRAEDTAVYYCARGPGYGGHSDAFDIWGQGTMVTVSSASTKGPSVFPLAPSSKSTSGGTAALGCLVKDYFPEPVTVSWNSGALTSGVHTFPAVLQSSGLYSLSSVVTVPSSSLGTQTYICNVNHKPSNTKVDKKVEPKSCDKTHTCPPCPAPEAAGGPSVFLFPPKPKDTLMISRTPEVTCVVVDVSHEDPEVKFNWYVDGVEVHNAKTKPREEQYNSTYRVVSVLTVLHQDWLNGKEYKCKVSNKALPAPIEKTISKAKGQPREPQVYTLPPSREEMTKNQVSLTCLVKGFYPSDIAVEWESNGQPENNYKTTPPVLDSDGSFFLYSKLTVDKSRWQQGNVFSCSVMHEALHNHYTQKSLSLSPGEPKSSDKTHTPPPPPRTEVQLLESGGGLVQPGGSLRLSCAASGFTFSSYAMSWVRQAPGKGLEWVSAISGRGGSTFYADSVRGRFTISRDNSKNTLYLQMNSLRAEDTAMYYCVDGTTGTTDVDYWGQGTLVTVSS
notes: Structure 1, IgG-VH; PSMA Fab from PR001331, OX40 VH from PR002067; linker H1_15-RT; human IgG1 (LALA); also called PSMA×OX40 bispecific antibody molecule
For the molecule B7, the binding result with human OX40 and with human PSMA was “binds” in each case.

B8: PR003556 (bispecific antibody, human IgG1, kappa, L234A L235A)
light: B6 light
heavy: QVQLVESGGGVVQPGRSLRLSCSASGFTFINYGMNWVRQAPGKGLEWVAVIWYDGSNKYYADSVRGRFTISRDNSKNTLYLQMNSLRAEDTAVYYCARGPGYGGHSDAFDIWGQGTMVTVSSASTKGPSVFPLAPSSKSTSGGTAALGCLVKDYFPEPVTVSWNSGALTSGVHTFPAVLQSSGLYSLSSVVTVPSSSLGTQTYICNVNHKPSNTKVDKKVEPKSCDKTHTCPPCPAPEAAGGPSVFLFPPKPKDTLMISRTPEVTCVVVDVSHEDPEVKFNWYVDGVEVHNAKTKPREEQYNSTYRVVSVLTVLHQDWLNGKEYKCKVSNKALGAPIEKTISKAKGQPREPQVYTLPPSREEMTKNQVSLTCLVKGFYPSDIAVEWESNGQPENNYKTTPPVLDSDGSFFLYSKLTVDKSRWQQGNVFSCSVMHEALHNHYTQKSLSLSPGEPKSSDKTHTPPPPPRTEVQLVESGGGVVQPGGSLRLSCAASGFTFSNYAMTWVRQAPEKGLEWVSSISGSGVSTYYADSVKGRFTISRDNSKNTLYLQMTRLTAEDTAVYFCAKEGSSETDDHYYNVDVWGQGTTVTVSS
notes: Structure 1, IgG-VH; PSMA Fab from PR001331, 4-1BB VH from PR001760; linker H1_15-RT; human IgG1 (AAG); also called PSMA×4-1BB bispecific antibody molecule
Take B8: the binding result in the assay with human 4-1BB and in the assay with human PSMA was “binds” throughout.

B9: PR003557 (bispecific antibody, human IgG1, kappa, L234A L235A)
light: B6 light
heavy: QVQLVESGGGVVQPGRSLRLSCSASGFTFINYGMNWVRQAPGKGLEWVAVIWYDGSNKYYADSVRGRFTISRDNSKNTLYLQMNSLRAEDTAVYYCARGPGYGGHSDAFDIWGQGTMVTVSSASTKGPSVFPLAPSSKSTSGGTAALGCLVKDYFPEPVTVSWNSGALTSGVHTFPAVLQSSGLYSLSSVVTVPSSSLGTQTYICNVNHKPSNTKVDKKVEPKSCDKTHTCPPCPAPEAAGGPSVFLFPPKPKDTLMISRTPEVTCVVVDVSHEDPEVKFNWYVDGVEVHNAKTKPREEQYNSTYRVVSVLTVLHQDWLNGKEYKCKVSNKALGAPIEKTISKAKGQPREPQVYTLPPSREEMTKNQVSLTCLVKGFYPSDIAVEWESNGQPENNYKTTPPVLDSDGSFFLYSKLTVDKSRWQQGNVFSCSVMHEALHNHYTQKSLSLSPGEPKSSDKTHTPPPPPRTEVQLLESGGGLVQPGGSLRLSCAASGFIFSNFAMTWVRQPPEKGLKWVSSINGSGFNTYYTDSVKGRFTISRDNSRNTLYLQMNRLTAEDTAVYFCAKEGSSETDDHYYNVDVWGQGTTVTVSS
notes: Structure 1, IgG-VH; PSMA Fab from PR001331, 4-1BB VH from PR001836; linker H1_15-RT; human IgG (AAG) as printed; also called PSMA×4-1BB bispecific antibody molecule
With B9, the binding result with human 4-1BB and with human PSMA was “binds” each time.

B10: PR002726, anti-CLDN18.2 monoclonal antibody 13E6F4 hIgG1 (antibody, V domains shown)
VH: EVQLLESGGGLVQPGGSLRLSCAASGFTFSSFVMSWVRQAPGKGLEWVSTISGSGRSTYYADSVKGRFTISRDNSKNTLHLQMNSLRAEDTAVYYCAKDAAAAGTKFDYWGQGTLVTVSS
VL: EIVLTQSPATLSLSPGERATLSCRASQSVSSYLAWYQQKPGQAPRLLIYDASNRATGIPARFSGSGSGTDFTLTISSLEPEDFAVYYCQQRSNWPLTFGGGTKVEIKR
notes: Parent monoclonal antibody of the CLDN18.2 end; hIgG1
In the case of B10, the binding result with human CLDN18.2 is “binds”.
